Tests used:
[1] = biological target: integrin αvβ3 (mouse (endogenous in mouse synovial cells)) (UniProt P43406); test: flow cytometry on cells; mouse synovial cells first incubated with anti-αvβ3, anti-α5β1 or both blocking antibodies for half an hour at 4 °C, washed, then 75 uM HM-3-Fc for 1 h at 4 °C; FITC-protein A as probe
[2] = biological target: integrin α5β1 (mouse (endogenous in mouse synovial cells)) (UniProt P11688); test: as above
[3] = biological target: integrin αvβ3 (mouse (endogenous in mouse synovial cells)) (UniProt P43406); test: flow cytometry on cells; mouse synovial cells blocked with 1% BSA, incubated with 1, 10 or 75 uM HM-3-Fc for 1 h at 4 °C, no blocking antibody; FITC-protein A as probe for the Fc part
[4] = biological target: integrin α5β1 (mouse (endogenous in mouse synovial cells)) (UniProt P11688); test: as above

Sequence of UniProt P11688 (P11688 45-1053, chain 1 of 2): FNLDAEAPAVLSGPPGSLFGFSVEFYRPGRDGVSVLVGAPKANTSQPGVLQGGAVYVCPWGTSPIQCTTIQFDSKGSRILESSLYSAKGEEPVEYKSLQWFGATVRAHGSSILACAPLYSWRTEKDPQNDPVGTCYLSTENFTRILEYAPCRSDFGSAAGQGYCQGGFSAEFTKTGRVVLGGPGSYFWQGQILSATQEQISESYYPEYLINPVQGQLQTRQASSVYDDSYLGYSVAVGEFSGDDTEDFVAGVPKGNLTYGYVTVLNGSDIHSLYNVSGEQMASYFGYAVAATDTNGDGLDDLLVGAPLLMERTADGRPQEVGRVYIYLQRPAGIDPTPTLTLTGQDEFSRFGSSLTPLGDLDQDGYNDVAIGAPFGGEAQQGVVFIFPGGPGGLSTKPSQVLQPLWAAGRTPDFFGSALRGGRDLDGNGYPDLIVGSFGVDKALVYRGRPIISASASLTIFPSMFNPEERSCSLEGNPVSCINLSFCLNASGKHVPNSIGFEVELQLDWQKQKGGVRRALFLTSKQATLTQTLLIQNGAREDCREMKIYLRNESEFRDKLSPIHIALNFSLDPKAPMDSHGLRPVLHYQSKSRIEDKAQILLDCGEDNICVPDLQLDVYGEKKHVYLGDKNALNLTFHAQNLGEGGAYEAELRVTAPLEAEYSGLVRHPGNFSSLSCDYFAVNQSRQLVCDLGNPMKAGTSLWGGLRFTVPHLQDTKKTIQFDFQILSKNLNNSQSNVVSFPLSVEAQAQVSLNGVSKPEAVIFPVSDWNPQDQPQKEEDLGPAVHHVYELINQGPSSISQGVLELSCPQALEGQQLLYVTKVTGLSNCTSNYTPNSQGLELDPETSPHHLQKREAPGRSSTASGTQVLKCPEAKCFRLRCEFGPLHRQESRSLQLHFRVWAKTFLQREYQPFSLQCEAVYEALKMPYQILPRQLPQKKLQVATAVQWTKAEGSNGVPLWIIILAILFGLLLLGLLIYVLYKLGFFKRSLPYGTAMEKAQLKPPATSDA
Sequence of UniProt P11688 (P09055 21-798, chain 2 of 2, further chain): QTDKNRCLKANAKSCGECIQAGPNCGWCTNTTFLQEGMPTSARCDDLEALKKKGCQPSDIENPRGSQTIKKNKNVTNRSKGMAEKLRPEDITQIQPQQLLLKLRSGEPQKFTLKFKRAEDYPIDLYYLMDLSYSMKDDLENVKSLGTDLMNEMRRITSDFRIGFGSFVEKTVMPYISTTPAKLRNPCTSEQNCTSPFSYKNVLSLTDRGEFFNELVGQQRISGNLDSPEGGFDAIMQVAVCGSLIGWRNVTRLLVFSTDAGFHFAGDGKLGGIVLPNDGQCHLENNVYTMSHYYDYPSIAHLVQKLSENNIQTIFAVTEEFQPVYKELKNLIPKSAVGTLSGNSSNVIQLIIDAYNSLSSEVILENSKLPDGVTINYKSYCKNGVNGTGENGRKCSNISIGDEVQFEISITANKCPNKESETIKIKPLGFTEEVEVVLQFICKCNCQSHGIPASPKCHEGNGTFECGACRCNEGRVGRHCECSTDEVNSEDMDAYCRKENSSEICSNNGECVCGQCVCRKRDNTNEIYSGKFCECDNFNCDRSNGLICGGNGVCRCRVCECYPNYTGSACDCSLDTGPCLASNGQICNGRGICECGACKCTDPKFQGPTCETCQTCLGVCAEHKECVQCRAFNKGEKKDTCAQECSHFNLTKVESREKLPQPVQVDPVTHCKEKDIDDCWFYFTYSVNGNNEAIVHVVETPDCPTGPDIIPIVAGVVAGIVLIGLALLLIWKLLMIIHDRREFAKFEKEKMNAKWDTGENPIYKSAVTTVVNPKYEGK
Sequence of UniProt P43406 (P43406 31-1044, chain 1 of 2): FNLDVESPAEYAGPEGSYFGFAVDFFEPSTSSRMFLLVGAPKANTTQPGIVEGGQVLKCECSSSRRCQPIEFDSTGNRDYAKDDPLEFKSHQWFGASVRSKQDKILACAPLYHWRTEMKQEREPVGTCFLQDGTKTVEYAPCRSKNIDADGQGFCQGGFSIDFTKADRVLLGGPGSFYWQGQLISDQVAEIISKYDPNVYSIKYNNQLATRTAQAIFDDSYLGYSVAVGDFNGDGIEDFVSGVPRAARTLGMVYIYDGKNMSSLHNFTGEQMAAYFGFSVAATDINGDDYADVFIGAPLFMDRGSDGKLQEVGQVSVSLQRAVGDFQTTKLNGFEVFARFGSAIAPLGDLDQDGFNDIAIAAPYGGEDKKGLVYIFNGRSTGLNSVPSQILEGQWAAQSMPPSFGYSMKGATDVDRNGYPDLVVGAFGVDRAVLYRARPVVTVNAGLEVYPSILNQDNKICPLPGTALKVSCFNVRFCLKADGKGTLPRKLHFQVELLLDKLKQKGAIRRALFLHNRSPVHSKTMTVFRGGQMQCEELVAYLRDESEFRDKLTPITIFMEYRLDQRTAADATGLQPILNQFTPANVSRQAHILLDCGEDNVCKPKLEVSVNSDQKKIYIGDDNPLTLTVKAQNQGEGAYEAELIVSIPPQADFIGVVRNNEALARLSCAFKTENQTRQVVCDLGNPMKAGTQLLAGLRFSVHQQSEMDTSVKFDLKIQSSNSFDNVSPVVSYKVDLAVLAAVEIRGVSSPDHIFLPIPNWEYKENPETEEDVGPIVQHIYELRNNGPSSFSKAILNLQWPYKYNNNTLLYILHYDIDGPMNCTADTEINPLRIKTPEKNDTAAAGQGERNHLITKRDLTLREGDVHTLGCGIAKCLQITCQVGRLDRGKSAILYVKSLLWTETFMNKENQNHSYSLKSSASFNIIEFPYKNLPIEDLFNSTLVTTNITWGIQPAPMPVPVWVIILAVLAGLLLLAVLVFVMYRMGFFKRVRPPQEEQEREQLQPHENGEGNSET
Sequence of UniProt P43406 (O54890 26-787, chain 2 of 2, further chain): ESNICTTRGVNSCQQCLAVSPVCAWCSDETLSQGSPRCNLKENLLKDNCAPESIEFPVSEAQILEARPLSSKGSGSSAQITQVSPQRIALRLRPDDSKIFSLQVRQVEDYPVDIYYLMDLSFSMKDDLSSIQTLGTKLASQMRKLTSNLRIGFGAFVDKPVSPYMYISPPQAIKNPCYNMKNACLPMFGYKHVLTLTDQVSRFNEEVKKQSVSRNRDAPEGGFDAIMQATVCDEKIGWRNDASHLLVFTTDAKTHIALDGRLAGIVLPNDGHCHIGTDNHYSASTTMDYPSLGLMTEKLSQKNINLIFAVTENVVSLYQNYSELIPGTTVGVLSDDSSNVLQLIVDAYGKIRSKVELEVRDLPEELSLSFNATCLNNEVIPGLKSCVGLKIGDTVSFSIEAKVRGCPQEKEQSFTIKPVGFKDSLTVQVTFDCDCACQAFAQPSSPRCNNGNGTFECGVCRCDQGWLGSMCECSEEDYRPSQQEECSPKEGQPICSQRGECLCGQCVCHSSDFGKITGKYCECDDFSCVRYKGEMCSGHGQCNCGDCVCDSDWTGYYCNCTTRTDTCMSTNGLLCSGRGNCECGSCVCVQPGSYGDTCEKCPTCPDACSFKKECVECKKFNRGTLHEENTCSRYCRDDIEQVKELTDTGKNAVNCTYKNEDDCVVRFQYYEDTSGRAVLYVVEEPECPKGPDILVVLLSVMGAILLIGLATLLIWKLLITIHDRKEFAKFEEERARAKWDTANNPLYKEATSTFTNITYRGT

- binding rate (percent of cells positive) at 75 umol/L after block of αvβ3 and α5β1 together [1]: 0.01%
- binding rate (percent of cells positive) at 75 umol/L after block with an anti-αvβ3 antibody [1]: 1.4%
- binding rate (percent of cells positive) at 75 umol/L after block of αvβ3 and α5β1 together [2]: 0.01%
- binding rate (percent of cells positive) at 75 umol/L after block with an anti-α5β1 antibody [2]: 11.2%
- binding rate (percent of cells positive) at 75 umol/L, unblocked cells that carry both integrins [3]: 70.7%
- binding rate (percent of cells positive) at 75 umol/L, unblocked cells that carry both integrins [4]: 70.7%
Substance: HM-3-Fc fusion protein

From article PMC6163367
